Experimental findings from the RNAGym collection of RNA variant scans (doi:10.7554/elife.80360) are described below.

The chains are these.
B1: Hairpin Ribozyme (parent)
chain: GUCCUCUUUCACGUGCGCGUGAAAGAGAGAAGUGAACCAGAGAAACACACGUUGUGGUAUAUUACCUGGUA

Variants of B1 are the subject of the data set. Kind of data set: self-cleavage, relative activity (ratio to wild type); higher = more cleavage; co-transcriptional.
As for C12U C38G, the self-cleavage is 0.235. Under C12G G34C stands 1.15; under C12G C38U, 0.392.

As for G13U A36C, the self-cleavage turned out to be 0.537. Regarding C12G G21C, the self-cleavage was 0.47. As for C12U U20G, the self-cleavage came to 0.76. The result for G13U G27U reads 0.215. On to G13U G27A, for which the self-cleavage was 0.347. Consider U14A A43U, for which the self-cleavage amounted to 0.0759. On to C12U A23C, for which the self-cleavage is 0.93. The result for G13A C18A reads 1.02; that for C12U A36U, 0.584; that for C12U A36G, 1.17.

Consider C12G G19A, for which the self-cleavage was 0.808. As to C12G G19U, the self-cleavage is 0.997. Under C12G G19C stands 1.24. The result for G13U G42C reads 0.227; that for G13A U62G, 0.106; that for G13U C48G, 0.106. On to G13C U70A, for which the self-cleavage was determined as 0.475. Under G13C U70C stands 0.716; under C12U A30U, 0.136; under C12U A30C, 0.193. Under C12U A44G stands 0.201. In the case of C12U A44U, the self-cleavage was found to be 0.0952. On to U14A G32A, for which the self-cleavage was found to be 0.106. As for U14A G32U, the self-cleavage was 0.108. C12U A43G: the self-cleavage stood at 0.0708. Take C12U A43U: the self-cleavage is 0.22. For the variant C12U A22U, the self-cleavage amounted to 0.759. Consider C12U A22G, for which the self-cleavage was determined as 0.748. As for C12U U70G, the self-cleavage stood at 0.659.

C12U U70A: the self-cleavage came to 0.746. As for C12U, the self-cleavage was 0.887. With G13U A45U, the self-cleavage worked out at 0.136. The result for G13C G29U reads 0.0913.

Regarding G13A A41G, the self-cleavage came to 0.777. As for G13A A41U, the self-cleavage was determined as 0.964. G13C U62G: the self-cleavage worked out at 0.185. On to G13C U62A, for which the self-cleavage was 0.143. C12U G56C: the self-cleavage worked out at 0.137.

Regarding C12U G56U, the self-cleavage was found to be 0.193.

G13C A44G: the self-cleavage came to 0.127. As for G13C A28C, the self-cleavage turned out to be 0.343. For C12U U63G, the self-cleavage was found to be 0.162. Take C12G U58A: the self-cleavage is 0.734. For the variant U14A A35U, the self-cleavage was 0.656.

With C12G C46G, the self-cleavage amounted to 0.17. As for C12G C46A, the self-cleavage came to 0.191. The result for U14A C46U reads 0.126; that for G13A G15C, 0.753. As to G13A G15U, the self-cleavage was found to be 1.1. For G13C A35G, the self-cleavage is 0.801. For the variant G13C A35U, the self-cleavage amounted to 0.552. For the variant U14A G51A, the self-cleavage came to 0.957. With U14A G51C, the self-cleavage turned out to be 0.89.

Consider G13C C50A, for which the self-cleavage was 0.137. Take G13C C50U: the self-cleavage worked out at 0.281.

Consider G13C G40C, for which the self-cleavage came to 0.11. The result for G13C G40A reads 0.299; that for C12U U53C, 0.862. Regarding G13A C37A, the self-cleavage worked out at 0.373.

In the case of C12G G54A, the self-cleavage amounted to 0.543. With G13A A23C, the self-cleavage amounted to 0.571. With G13U U14C, the self-cleavage came out at 0.544. Take G13A G54U: the self-cleavage was 0.42. On to G13A G54C, for which the self-cleavage was found to be 0.346. As for U14A A30C, the self-cleavage is 0.222. Consider U14A A30G, for which the self-cleavage is 0.165.

Regarding U14A A30U, the self-cleavage worked out at 0.156. On to G13U C37U, for which the self-cleavage stood at 0.443. On to G13U C37G, for which the self-cleavage is 0.384. Turning to G13U C37A, the self-cleavage was 0.249.

Consider G13A A64C, for which the self-cleavage was 0.178. G13A A64U: the self-cleavage was found to be 0.258. Consider G13U A44C, for which the self-cleavage amounted to 0.0986. The result for G13U A44G reads 0.199; that for G13U G57U, 0.202. In the case of G13U G57C, the self-cleavage stood at 0.173.

As to G13U C50U, the self-cleavage was determined as 0.268. As for G13A A30G, the self-cleavage stood at 0.104. G13U C46A: the self-cleavage turned out to be 0.193. Take G13U A39G: the self-cleavage was determined as 0.273. Consider G13U U52G, for which the self-cleavage was 0.623. As for G13A U67G, the self-cleavage was determined as 0.18. As to G13U A41G, the self-cleavage was 0.752. The result for G13U A41U reads 1.15.

With C12U A45G, the self-cleavage was determined as 0.162.

As to C12U A45U, the self-cleavage was found to be 0.163. For the variant G13C C48U, the self-cleavage was 0.108. Regarding G13C A24U, the self-cleavage amounted to 0.735. The result for U14A G25C reads 0.418; that for G13U A22C, 0.533.

In the case of G13U A22U, the self-cleavage amounted to 0.622.

As for C12G G17U, the self-cleavage turned out to be 0.627. The result for C12U A35C reads 0.975; that for C12U A35G, 0.938.

In the case of C12U A31C, the self-cleavage amounted to 0.204.

Consider G13U G19A, for which the self-cleavage is 0.73. Take U14A A71C: the self-cleavage worked out at 1.34. Turning to U14A A71U, the self-cleavage turned out to be 0.645. For the variant G13A A35U, the self-cleavage was 0.78. Under G13A A35G stands 0.732; under G13C G25U, 0.436. The result for G13C G25A reads 0.448; that for U14A C48G, 0.196.

Regarding U14A C48A, the self-cleavage worked out at 0.179. On to G13A U53G, for which the self-cleavage stood at 0.597. Consider U14A A23U, for which the self-cleavage was determined as 0.701. C12U A49U: the self-cleavage is 0.159. With C12U A49C, the self-cleavage was 0.169.

Take G13A A44G: the self-cleavage came out at 0.125. With G13U A24G, the self-cleavage turned out to be 0.681.

Consider G13C A64U, for which the self-cleavage was found to be 0.128. Turning to G13C A64G, the self-cleavage turned out to be 0.448. As for C12U U60C, the self-cleavage was determined as 1.02. Regarding C12U U60G, the self-cleavage is 0.504. Take C12G G25C: the self-cleavage turned out to be 0.489. Regarding G13U U67G, the self-cleavage was determined as 0.241. As for G13U C16G, the self-cleavage came out at 0.655. For C12U C46U, the self-cleavage was found to be 0.174. Turning to C12G U62C, the self-cleavage came to 0.235. In the case of C12G U62A, the self-cleavage came to 0.176. Take U14A G42A: the self-cleavage was determined as 0.108. The result for G13U A43G reads 0.186; that for G13U A43U, 0.127; that for G13A U60A, 0.714. For the variant G13A U60G, the self-cleavage amounted to 0.374.

On to C12U G68C, for which the self-cleavage came out at 0.191. The result for G13A G68A reads 0.275.

Turning to G13C A30U, the self-cleavage was 0.14. For G13C A47U, the self-cleavage came out at 0.109. Under G13C A47G stands 0.21; under G13C A47C, 0.205. For the variant G13A A47U, the self-cleavage is 0.172. Turning to U14A A59G, the self-cleavage was 0.0952.

G13U G69C: the self-cleavage was found to be 0.198. On to C12G G51C, for which the self-cleavage was 0.753. For C12G G51U, the self-cleavage was found to be 0.663. On to C12G G51A, for which the self-cleavage amounted to 0.965. In the case of G13C A71U, the self-cleavage turned out to be 0.41. As for G13U G32A, the self-cleavage is 0.183. On to G13U G15U, for which the self-cleavage was determined as 0.941. For G13A A59G, the self-cleavage was determined as 0.104.

Consider G13C A26U, for which the self-cleavage was 0.406.

Take C12U G27C: the self-cleavage worked out at 0.15. On to G13U A47U, for which the self-cleavage amounted to 0.129. As for G13U A47G, the self-cleavage was 0.143. For G13U A47C, the self-cleavage was determined as 0.326. As to G13U U20A, the self-cleavage worked out at 0.73. On to G13U U20C, for which the self-cleavage turned out to be 1.03. Turning to G13A A49G, the self-cleavage was found to be 0.5. In the case of G13A A49U, the self-cleavage came to 0.18.

G13U G17U: the self-cleavage came out at 0.712.

With U14A A47G, the self-cleavage was found to be 0.153. The result for G13U C18G reads 0.722; that for C12U G13C, 0.791. The result for C12U G13U reads 0.828. As to G13U G21A, the self-cleavage was found to be 0.595. For G13U G21C, the self-cleavage came out at 0.431. For the variant C12G G40A, the self-cleavage is 0.266. Consider G13A C65G, for which the self-cleavage amounted to 0.238. Under G13A C38A stands 0.154. As to G13A C38G, the self-cleavage was found to be 0.0904. With G13U A23C, the self-cleavage came to 0.557. The result for G13U A71U reads 0.684; that for G13A C46U, 0.221.
